Measured values as given in US20200188541A1.
pKd: −log10 of the molar value.

Experiments:
[1] = molecular target: HER2 extracellular domain (coated on magnetic beads) (UniProt P04626); test: Lindmo method, magnetic beads coated with HER2 extracellular domain (BSA beads as negative control), paired-label
[2] = molecular target: Human epidermal growth factor receptor 2 (HER2) on BT474M1 human breast carcinoma cells (human) (UniProt P04626); test: saturation binding of radiolabeled VHH on BT474M1 cells at 4 C, non-specific binding with 100-fold excess trastuzumab

Row | immunoreactive fraction [1] | pKd [2] | Substance
1 | 83.5% | 8.35 | [^211At]SAGMB-5F7 VHH
2 | 81.8% |  | iso-[^131I]SGMIB-5F7 VHH
3 | 81.3% |  | iso-[^211At]SAGMB-5F7 VHH
4 | 84.5% |  | [^131I]SGMIB-5F7 VHH
